Laboratory results taken from patent publication US20050123549A1 (IMMUNOGEN, published 2005).

Experiments:
[1] = biological target: T1, Muc1 mucin carrying the CA6 sialoglycotope (human, UniProt P15941 24-1255, sialylated O-linked carbohydrate carrying the CA6 epitope; positions not stated); assay: flow cytometry on BT549 cells, apparent Kd
T1 construct: whole, on cells; Target of DS6 on CA6-positive human cell lines (flow cytometry) and in their lysates (dot blots, immunoprecipitation); also called CA6 antigen; DS6 antigen

[2] = biological target: T1, Muc1 mucin carrying the CA6 …; assay: flow cytometry on TOV-21G cells, apparent Kd
[3] = biological target: T1, Muc1 mucin carrying the CA6 …; assay: flow cytometry on T-47D cells, FITC anti-mouse IgG
Method: (§1) The fluorescence of cell lines incubated with the DS6 primary antibody and FITC conjugated anti-mouse IgG(H+L) secondary antibodies was measured by flow cytometry.
(§2) Cells ([…]) were incubated, on ice for 3-4 h, with serially diluted concentrations of the DS6 antibody prepared in FACS buffer (2% goat serum, RPMI) into 96-well plates. The cells were spun down in a table top centrifuge at 1500 rpm for 5 min at 4° C. After removing the media, the wells were then refilled with 150 μl of FACS buffer. The wash step was then repeated. FITC-labeled goat anti-mouse IgG (Jackson Immunoresearch) was diluted 1:100 to FACS buffer and incubated with the cells for 1 h on ice. The plate was covered in foil to prevent photobleaching of the signal. After two washes, the cells were fixed with 1% formaldehyde and analyzed on a flow cytometer.

[4] = biological target: T1, Muc1 mucin carrying the CA6 …; assay: flow cytometry on MCF7 cells, apparent Kd
[5] = biological target: T1, Muc1 mucin carrying the CA6 …; assay: flow cytometry on MDA-MB-231 cells, apparent Kd
Method: (§3) Human cell lines were obtained from the American Type Culture Collection (ATCC) with the exception of OVCAR5 (Kearse et al., Int. J. Cancer 88(6):866-872 (2000)), OVCAR8 and IGROV1 cells (M. Seiden, Massachusetts General Hospital). All cells were grown in RPMI 1640 supplemented with 4 mM L-glutamine, 50 U/ml penicillin, 50 μg/ml streptomycin (Cambrex Bio Science, Rockland, Me.) and 10% v/v fetal bovine serum (Atlas Biologicals, Fort Collins, Colo.), referred hereafter as culture media. Cells were maintained in a 37° C., 5% CO₂ humidified incubator.
as §2

[6] = biological target: T1, Muc1 mucin carrying the CA6 …; assay: flow cytometry on T98G cells, apparent Kd
Method: as §2

[7] = biological target: T1, Muc1 mucin carrying the CA6 …; assay: flow cytometry on WISH cells, direct binding
[8] = biological target: T1, Muc1 mucin carrying the CA6 …; assay: flow cytometry on HeLa cells, apparent Kd
[9] = biological target: T1, Muc1 mucin carrying the CA6 …; assay: cell-based or functional assay
[10] = biological target: T1, Muc1 mucin carrying the CA6 …; assay: flow cytometry on ZR-75-1 cells, apparent Kd
[11] = biological target: T1, Muc1 mucin carrying the CA6 …; assay: flow cytometry on HeLa cells, apparent Kd; remark: listed apart in the source
[12] = biological target: T1, Muc1 mucin carrying the CA6 …; assay: flow cytometry on BT-20 cells, apparent Kd
Method: as §3, §2

[13] = biological target: T1, Muc1 mucin carrying the CA6 …; assay: flow cytometry on Caov-4 cells, apparent Kd
Method: as §2

[14] = biological target: T1, Muc1 mucin carrying the CA6 …; assay: flow cytometry on BT-549 cells, apparent Kd
Method: as §3, §2

[15] = biological target: T1, Muc1 mucin carrying the CA6 …; assay: flow cytometry on KB cells, apparent Kd
[16] = biological target: T1, Muc1 mucin carrying the CA6 …; assay: flow cytometry on Caov-3 cells, FITC anti-mouse IgG
Method: as §1, §2

[17] = biological target: T1, Muc1 mucin carrying the CA6 …; assay: flow cytometry on BT-20 cells, apparent Kd; remark: listed apart in the source
[18] = biological target: T1, Muc1 mucin carrying the CA6 …; assay: competition flow cytometry on WISH cells; competitor 2 nM biotin-muDS6, streptavidin-DTAF
Method: To confirm that the huDS6 versions retains the affinity of muDS6, competitive binding experiments were conducted. […] In some cases, the experimentally measured apparent Kd can vary simply because of the secondary reagent used to indirectly detect binding.

[19] = biological target: T1, Muc1 mucin carrying the CA6 …; assay: flow cytometry on Caov-3 cells
[20] = biological target: T1, Muc1 mucin carrying the CA6 …; assay: flow cytometry on CaOV3 cells, apparent Kd

B1: murine DS6 anti-CA6 monoclonal antibody (antibody, IgG1, V domains shown)
VH: QAYLQQSGAELVRSGASVKMSCKASGYTFTSYNMHWVKQTPGQGLEWIGYIYPGNGATNYNQKFKGKATLTADPSSSTAYMQISSLTSEDSAVYFCARGDSVPFAYWGQGTLVTVSA
VL: QIVLTQSPAIMSASPGEKVTITCSAHSSVSFMHWFQQKPGTSPKLWIYSTSSLASGVPARFGGSGSGTSYSLTISRMEAEDAATYYCQQRSSFPLTFGAGTKLELKR
notes: Whole murine monoclonal IgG from the DS6 hybridoma (ATCC PTA-4449); the 3' heavy chain cloning primer was BamIgG1 and the light chain primer was kappa; also called DS6 antibody; muDS6
Which Kd [1] does the source give for B1 here?
The Kd was 1.05 nM.

What about the Kd [2] of the same binder?
Its Kd is 0.307 nM.

And the Kd [3]?
The Kd was 2.59 nM.

And the Kd [4]?
The Kd was 2.89 nM.

What about the Kd [5] of the same binder?
The Kd was 1.46 nM.

And the Kd [6]?
The Kd was 0.177 nM.

And the Kd [7]?
The Kd was 1.93 nM.

And the Kd [8]?
The Kd was 0.694 nM.

And the “indirect cell viability assay, DS6 with anti-mouse IgG (H+L) DM1 conjugate, Caov-3 cells, IC50” value [9]?
The value was 0.425 nM.

And the Kd [10]?
The Kd was 4.3 nM.

And the Kd [11]?
Its Kd is 0.694 nM.

And the Kd [12]?
The Kd was 0.914 nM.

And the Kd [13]?
The Kd was 4.04 nM.

And the Kd [14]?
Its Kd is 1.05 nM.

What about the Kd [15] of the same binder?
The Kd was 1.11 nM.

What about the Kd [16] of the same binder?
The Kd was 1.85 nM.

And the Kd [17]?
Its Kd is 0.914 nM.

And the EC50 [18]?
The EC50 was 12.2 nM.

And the Kd [19]?
Its Kd is 2.02 nM.

What about the Kd [20] of the same binder?
Its Kd is 5.48 nM.
